Measurements reported in FireProtDB (doi:10.1110/ps.8.9.1843).

B1: Guanyl-specific ribonuclease T1, P00651 (parent)
chain: MMYSKLLTLTTLLLPTALALPSLVERACDYTCGSNCYSSSDVSTAQAAGYQLHEDGETVGSNSYPHKYNNYEGFDFSVSSPYYEWPILSSGDVYSGGSPGADRVVFNENNQLAGVITHTGASGNNFVECT
B2: Guanyl-specific ribonuclease Sa, P05798 (parent)
chain: DVSGTVCLSALPPEATDTLNLIASDGPFPYSQDGVVFQNRESVLPTQSYGYYHEYTVITPGARTRGTRRIITGEATQEDYYTGDHYATFSLIDQTC

Experiments:
[1] = variants of: B1; details: Aspergillus oryzae (strain ATCC 42149 / RIB 40), 25 °C, Urea, CD, structure 1RN1, whole UniProt chain shown
[2] = variants of: B2; details: Kitasatospora aureofaciens; pH 7; Thermal; CD; MOPS 30 mM; structure 1RGG; whole UniProt chain shown

With MMYSKLLTLTTLLLPTALALPSLVERACDYTCGSNCYSSSDVSTAQAAGYQLHEDGETVGSNSYPHKYNNYEGFAFSVSSPYYEWPILSSGDVYSGGSPGADRVVFNENNQLAGVITHTGASGNNFVECT as the variant, how does the denaturant m value ([1]; pH 2.5, glycine 30 mM) read?
Its denaturant m value is 1.69 kcal/mol/M.

And the “denaturant midpoint (higher = more stable)” value ([1]; pH 2.5, glycine 30 mM)?
Its value is 3.42 M.

And the denaturant m value ([1]; pH 7, MOPS 30 mM)?
The denaturant m value was 1.21 kcal/mol/M.

And the “denaturant midpoint (higher = more stable)” value ([1]; pH 7, MOPS 30 mM)?
Its value is 5.67 M.

With DVSGTVCLSALPPEATDTLNLIASDGPFPYSQDGVVFQNRESVLPTQSYGYYHEYTVITPGARTRGTRRIITGKATQEDYYTGDHYATFSLIDQTC as the variant, how does the Tm [2] read?
The Tm was 51.1 °C.

What about the “unfolding enthalpy (van 't Hoff)” value [2] of the same variant?
The value was 393 kJ/mol.

With DVSGTVCLSALPPEATDTLNLIASKGPFPYSQDGVVFQNRESVLPTQSYGYYHEYTVITPGARTRGTRRIITGEATQEDYYTGDHYATFSLIDQTC as the variant, how does the Tm [2] read?
The Tm was 50.2 °C.

What about the “unfolding enthalpy (van 't Hoff)” value [2] of the same variant?
Its value is 389 kJ/mol.
